Columns and labels:
[1] = Microbial Glycan Microarray (MGMv2); format: binding, Shigella boydii; conditions: Strep-hIntL-1 50 μg/mL; terminal α-Galf residue
Procedure: Strep-hIntL-1 was used to interrogate the Microbial Glycan Microarray version 2 (MGMv2). Construction of the MGMv2 is previously described. Briefly, bacterial polysaccharide samples were dissolved and diluted to 0.5 mg/mL in printing buffer (150 mM sodium phosphate buffer (8.4)+0.005% Tween-20). Samples were immobilized on NETS-activated glass slides (SlideH, Schott/Nexterion) using a MicroGrid II (Digilab) contact microarray printer equipped with SMP-4B printing pins (Telechem). Six replicates of each bacterial glycan sample were printed. Covalent coupling of glycans to the surface was facilitated by incubation for 1 hour postprint at 100% relative humidity. The remaining reactive NHS-moieties were quenched using a blocking solution (50 mM ethanolamine in 50 mM borate buffer (9.2)). Blocked slides were stored at −20° C. until assays were performed. […] The Strep-Tag® II on bound hIntL-1 was detected using StrepMAB-Classic Chromeo647 (10 μg/mL, IBA GmbH Lifesciences) diluted in binding buffer applied directly to the array surface and allowed to incubate for 1 hour. […] Signal data was calculated as the average of 4 values after removing the high and low values of the 6 replicates. Data were plotted using Excel (Microsoft) as average Relative Fluorescence Units (RFU) versus print identification number. […]

[2] = system: adult male fecal microbiome; assay: Flow cytometry binding to adult fecal microbiome; parameters: species or system human; conditions: adult fecal sample, 15 μg/mL Strep-tagged-hIntL-1, 10 mM CaCl2
Procedure: Human fecal samples provide a non-invasive proxy of the intestinal microbiome of a patient. The inventors have isolated the intestinal microbiome from human fecal samples and analyzed it for hIntL-1 binding. The isolated microbiome was fixed using an aqueous solution of 1% formaldehyde. Cells were stained as described elsewhere, using either a solution including calcium ions (100 mM) or one containing the calcium ion chelator EDTA. Microbes were exposed to 20 mM HEPES (pH 7.2), 150 mM NaCl, 10 mM CaCl2, 15 μg/mL Strep-tagged-hIntL-1, 0.1% bovine serum albumin (BSA), 0.05% tween-20, 2 μg/mL StrepMAB Classic conjugated to Oyster 645 (IBA Lifesciences, cat. no.: 2-1555-050). To test for a role for calcium ions, cells were exposed to a solution of 20 mM HEPES (pH 7.2), 150 mM NaCl, 1 mM EDTA, 15 μg/mL Strep-tagged-hIntL-1, 0.1% bovine serum albumin (BSA), 0.05% tween-20, 2 μg/mL StrepMAB Classic Conjugated to Oyster 645 (IBA Lifesciences, cat. no.: 2-1555-050). Cells are analyzed consecutively on a BD LSRII flow cytometer using identical instrument setting. Unstained cells, cells stained in the presence of calcium ions (10 mM), and cells stained in the presence of EDTA were directly compared. […]

[3] = system: Bacteroides xylanisolvens; assay: Flow cytometry binding to microbiome strain; conditions: fixed cells; 15 μg/mL Strep-tagged-hIntL-1, 10 mM CaCl2 vs EDTA control
Procedure: (§1) The inventors have begun to examine the binding of hIntL-1 to bacteria known to reside in the human intestine. Strains of relevant bacteria were grown anaerobically. The samples are fixed using 1% formaldehyde for 30 min on ice. […] Fixed cells are exposed to Strep-tagged (IBS Lifesciences) -hIntL-1. The Strep-tag not necessary for function but added because it facilitates purification and detection. Cells were analyzed by flow cytometry on a BD FACSCalibur or LSRII. Bacterial cells were identified using either propidium iodide (PI) or DAPI. An anti-Strep-tag antibody conjugated to the fluorophore Oyster 645 nm was used to detect the population of bacteria bound by hIntL-1.
(§2) To determine whether observed binding is dependent on hIntL-1 interaction with microbial glycans, the inventors take advantage of critical role of calcium ions in hIntL-1 binding. The addition of the calcium ion chelator EDTA, which sequesters bound calcium ions, serves as an important specificity control. Fixed bacteria are incubated in 20 mM HEPES (pH 7.2), 150 mM NaCl, 10 mM CaCl2, 15 μg/mL Strep-tagged-hIntL-1, 0.1% bovine serum albumin (BSA), 0.05% Tween-20, 2 μg/mL StrepMAB-Classic conjugated to Oyster 645 (IBA Lifesciences, cat. no.: 2-1555-050). For the cells incubated in the absence of calcium ions, the following solution is used 20 mM HEPES (pH 7.2), 150 mM NaCl, 5 mM EDTA, 15 μg/mL Strep-tagged-hIntL-1, 0.1% bovine serum albumin (BSA), 0.05% tween-20, 2 μg/mL StrepMAB-Classic conjugated to Oyster 645 (IBA Lifesciences, cat. no.: 2-1555-050). Cell samples were analyzed by flow cytometry consecutively using an identical instrument setting. The percentages of unstained cells, cells stained in the presence of calcium ions, and cells stained in the presence of EDTA were directly compared. Increased hIntL-1 binding signal in the presence of calcium ions when compared to unstained cells or the EDTA sample indicates specific binding to the surface glycans of that strain of bacteria. FIG. 17 is representative of the data obtained. A list of bacteria bound by hIntL-1 can be found in Table 1. […]

Bifidobacterium dentium = assay: Flow cytometry binding to microbiome strain; conditions: fixed cells; 15 μg/mL Strep-tagged-hIntL-1, 10 mM CaCl2 vs EDTA control
Procedure: as §1, §2

Lactobacillus reuteri = assay: Flow cytometry binding to microbiome strain; conditions: fixed cells; 15 μg/mL Strep-tagged-hIntL-1, 10 mM CaCl2 vs EDTA control
Procedure: as §1, §2

B1: hIntL-1: human lectin intelectin-1, accession no. Q8WWA0; recombinant disulfide-linked trimer from HEK 293T cells, used also N-terminally Strep-tagged (Strep-hIntL-1) (protein, listed as Homo sapiens)
chain: MNQLSFLLFLIATTRGWSTDEANTYFKEWTCSSSPSLPRSCKEIKDECPSAFDGLYFLRTENGVIYQTFCDMTSGGGGWTLVASVHENDMRGKCTVGDRWSSQQGSKAVYPEGDGNWANYNTFGSAEAATSDDYKNPGYYDIQAKDLGIWHVPNKSPMQHWRNSSLLRYRTDTGFLQTLGHNLFGIYQKYPVKYGEGKCWTDNGPVIPVVYDFGDAQKTASYYSPYGQREFTAGFVQFRVFNNERAANALCAGMRVTGCNTEHHCIGGGGYFPEASPQQCGDFSGFDWSGYGTHVGYSSSREITEAAVLLFYR
signal on microbial glycan array [1]: 26 RFU
fraction of bacteria of the human microbiome bound by hIntL-1 [2]: approximately 25%
binding of hIntL-1 to Bacteroides xylanisolvens by flow cytometry [3]: not
binding of hIntL-1 to Bifidobacterium dentium by flow cytometry (Bifidobacterium dentium): binds
binding of hIntL-1 to Lactobacillus reuteri by flow cytometry (Lactobacillus reuteri): binds

From patent US10413588B2, “Probiotic function of human intelectin” (Wisconsin Alumni Research Foundation, priority 2015, dated 2019)
